Test results from IntAct's records for PubMed 31515488.

B1: Scaffold protein ILK (Homo sapiens), Q13418 (parent)
chain: MDDIFTQCREGNAVAVRLWLDNTENDLNQGDDHGFSPLHWACREGRSAVVEMLIMRGARINVMNRGDDTPLHLAASHGHRDIVQKLLQYKADINAVNEHGNVPLHYACFWGQDQVAEDLVANGALVSICNKYGEMPVDKAKAPLRELLRERAEKMGQNLNRIPYKDTFWKGTTRTRPRNGTLNKHSGIDFKQLNFLTKLNENHSGELWKGRWQGNDIVVKVLKVRDWSTRKSRDFNEECPRLRIFSHPNVLPVLGACQSPPAPHPTLITHWMPYGSLYNVLHEGTNFVVDQSQAVKFALDMARGMAFLHTLEPLIPRHALNSRSVMIDEDMTARISMADVKFSFQCPGRMYAPAWVAPEALQKKPEDTNRRSADMWSFAVLLWELVTREVPFADLSNMEIGMKVALEGLRPTIPPGISPHVCKLMKICMNEDPAKRPKFDMIVPILEKMQDK
partner: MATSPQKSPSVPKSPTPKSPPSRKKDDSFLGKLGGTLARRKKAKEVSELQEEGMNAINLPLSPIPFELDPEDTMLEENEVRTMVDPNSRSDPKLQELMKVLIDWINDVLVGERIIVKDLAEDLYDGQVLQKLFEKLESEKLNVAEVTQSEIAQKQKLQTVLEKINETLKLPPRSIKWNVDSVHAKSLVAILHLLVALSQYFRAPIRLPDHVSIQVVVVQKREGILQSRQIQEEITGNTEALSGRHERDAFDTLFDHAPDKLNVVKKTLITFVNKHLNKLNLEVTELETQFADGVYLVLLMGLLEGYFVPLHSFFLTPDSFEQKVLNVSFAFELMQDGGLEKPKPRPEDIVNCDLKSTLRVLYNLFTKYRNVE
B2: Centrosomal protein of 55 kDa (Homo sapiens), Q53EZ4 (parent)
chain: MSSRSTKDLIKSKWGSKPSNSKSETTLEKLKGEIAHLKTSVDEITSGKGKLTDKERHRLLEKIRVLEAEKEKNAYQLTEKDKEIQRLRDQLKARYSTTTLLEQLEETTREGERREQVLKALSEEKDVLKQQLSAATSRIAELESKTNTLRLSQTVAPNCFNSSINNIHEMEIQLKDALEKNQQWLVYDQQREVYVKGLLAKIFELEKKTETAAHSLPQQTKKPESEGYLQEEKQKCYNDLLASAKKDLEVERQTITQLSFELSEFRRKYEETQKEVHNLNQLLYSQRRADVQHLEDDRHKTEKIQKLREENDIARGKLEEEKKRSEELLSQVQFLYTSLLKQQEEQTRVALLEQQMQACTLDFENEKLDRQHVQHQLHVILKELRKARNQITQLESLKQLHEFAITEPLVTFQGETENREKVAASPKSPTAALNESLVECPKCNIQYPATEHRDLLVHVEYCSK

Variants of: B1
Details: with parva_human PARVA

Row | Variant | effect of a mutation on the interaction
1 | K223N | disrupting interaction strength
2 | V340G | with no effect
3 | R349H | disrupting interaction strength
4 | Y278H | disrupting interaction strength
5 | A262V | with no effect
6 | Q362H | with no effect
7 | L314H | with no effect

Variants of: B2
Details: with pdc6i_human PDCD6IP

Row | Variant | effect of a mutation on the interaction
8 | L59F | with no effect
9 | C236R | with no effect
10 | A244P | with no effect
11 | H57Q | with no effect
12 | E321K | with no effect
13 | R138Q | with no effect
14 | R348K | with no effect

Variants of: B2
Details: with dpolm_human POLM

Row | Variant | effect of a mutation on the interaction
15 | C236R | with no effect
16 | A244P | with no effect
17 | H57Q | with no effect
18 | R348K | with no effect

Variants of: B2
Details: with tead4_human TEAD4, Q15561
Chain of tead4_human TEAD4, Q15561 (Q15561 whole entry): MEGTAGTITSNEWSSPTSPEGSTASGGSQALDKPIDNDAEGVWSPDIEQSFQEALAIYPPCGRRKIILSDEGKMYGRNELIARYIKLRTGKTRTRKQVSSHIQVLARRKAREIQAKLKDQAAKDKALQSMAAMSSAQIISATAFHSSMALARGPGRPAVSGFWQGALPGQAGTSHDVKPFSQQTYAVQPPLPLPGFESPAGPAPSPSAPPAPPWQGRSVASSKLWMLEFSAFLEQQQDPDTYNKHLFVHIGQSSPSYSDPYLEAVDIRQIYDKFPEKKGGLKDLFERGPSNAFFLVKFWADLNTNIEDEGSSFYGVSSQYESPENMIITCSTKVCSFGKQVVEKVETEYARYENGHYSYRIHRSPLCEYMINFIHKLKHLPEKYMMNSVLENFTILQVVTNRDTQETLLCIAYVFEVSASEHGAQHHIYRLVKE

Row | Variant | effect of a mutation on the interaction
19 | C236R | with no effect
20 | A244P | with no effect
21 | H57Q | with no effect
22 | R348K | with no effect

Variants of: B2
Details: with anx11_human ANXA11, P50995
Chain of anx11_human ANXA11, P50995 (P50995 whole entry): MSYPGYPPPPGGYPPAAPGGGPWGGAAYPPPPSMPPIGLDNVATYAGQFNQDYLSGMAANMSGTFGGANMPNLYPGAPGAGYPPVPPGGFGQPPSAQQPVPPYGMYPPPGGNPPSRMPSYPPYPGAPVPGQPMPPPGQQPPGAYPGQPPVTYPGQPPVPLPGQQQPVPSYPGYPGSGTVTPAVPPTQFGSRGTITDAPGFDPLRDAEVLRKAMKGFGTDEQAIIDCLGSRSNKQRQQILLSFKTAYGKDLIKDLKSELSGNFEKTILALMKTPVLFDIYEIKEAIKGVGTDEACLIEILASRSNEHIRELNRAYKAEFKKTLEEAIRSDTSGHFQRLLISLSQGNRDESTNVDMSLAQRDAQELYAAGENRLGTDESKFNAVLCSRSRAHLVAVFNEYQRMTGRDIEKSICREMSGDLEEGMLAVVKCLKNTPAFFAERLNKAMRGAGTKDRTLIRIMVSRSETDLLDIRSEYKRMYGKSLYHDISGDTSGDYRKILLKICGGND

Row | Variant | effect of a mutation on the interaction
23 | C236R | with no effect
24 | A244P | disrupting interaction strength
25 | H57Q | with no effect
26 | R348K | with no effect
